Measurements published in patent publication US20210122826A1 (MIT, published 2021).

T1: Human KLRF1 (human, UniProt Q9NZS2 1-231)
T1 construct: also called hKLRF1
T1 sequence: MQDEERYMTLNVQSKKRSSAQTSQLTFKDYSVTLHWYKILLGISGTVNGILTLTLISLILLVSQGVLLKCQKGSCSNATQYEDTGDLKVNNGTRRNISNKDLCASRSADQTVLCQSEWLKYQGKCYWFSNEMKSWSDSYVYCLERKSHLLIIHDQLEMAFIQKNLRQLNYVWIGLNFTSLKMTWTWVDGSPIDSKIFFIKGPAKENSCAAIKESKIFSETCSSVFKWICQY

T2: Human KLRF2 (human, UniProt D3W0D1 1-207)
T2 construct: also called hKLRF2
T2 sequence: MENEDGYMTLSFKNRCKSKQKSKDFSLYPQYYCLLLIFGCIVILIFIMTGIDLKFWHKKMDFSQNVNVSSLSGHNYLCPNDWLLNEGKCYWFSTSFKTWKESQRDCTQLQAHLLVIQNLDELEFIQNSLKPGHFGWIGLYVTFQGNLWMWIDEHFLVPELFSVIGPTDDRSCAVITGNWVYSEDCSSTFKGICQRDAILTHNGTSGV

T3: Human Clec12B (human, UniProt Q2HXU8 1-276)
T3 construct: also called hClec12B
T3 sequence: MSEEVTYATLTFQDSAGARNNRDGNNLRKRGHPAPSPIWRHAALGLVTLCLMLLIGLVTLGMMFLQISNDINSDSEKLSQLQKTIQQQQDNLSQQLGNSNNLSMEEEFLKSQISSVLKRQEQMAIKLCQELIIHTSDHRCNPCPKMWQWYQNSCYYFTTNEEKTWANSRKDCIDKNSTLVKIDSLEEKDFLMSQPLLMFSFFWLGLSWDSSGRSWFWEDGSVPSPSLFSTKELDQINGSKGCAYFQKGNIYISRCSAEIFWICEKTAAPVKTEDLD

T4: Human KLRG1 (human, UniProt Q96E93 1-195)
T4 construct: also called hKLRG1
T4 sequence: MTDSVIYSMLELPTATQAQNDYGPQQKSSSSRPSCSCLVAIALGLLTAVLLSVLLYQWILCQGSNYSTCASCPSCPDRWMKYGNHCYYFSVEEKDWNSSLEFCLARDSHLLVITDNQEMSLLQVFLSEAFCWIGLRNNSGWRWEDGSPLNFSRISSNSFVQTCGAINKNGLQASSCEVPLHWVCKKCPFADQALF

T5: Human Clec5A (human, UniProt Q9NY25 1-188)
T5 construct: also called hClec5A
T5 sequence: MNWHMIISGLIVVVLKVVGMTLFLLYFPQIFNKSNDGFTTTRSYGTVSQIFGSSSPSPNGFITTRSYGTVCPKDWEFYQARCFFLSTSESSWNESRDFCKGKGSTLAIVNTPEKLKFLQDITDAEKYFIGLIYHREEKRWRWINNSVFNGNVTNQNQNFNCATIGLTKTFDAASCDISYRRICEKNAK

T6: Human CD209 (human, UniProt Q9NNX6 1-404)
T6 construct: also called hCD209
T6 sequence: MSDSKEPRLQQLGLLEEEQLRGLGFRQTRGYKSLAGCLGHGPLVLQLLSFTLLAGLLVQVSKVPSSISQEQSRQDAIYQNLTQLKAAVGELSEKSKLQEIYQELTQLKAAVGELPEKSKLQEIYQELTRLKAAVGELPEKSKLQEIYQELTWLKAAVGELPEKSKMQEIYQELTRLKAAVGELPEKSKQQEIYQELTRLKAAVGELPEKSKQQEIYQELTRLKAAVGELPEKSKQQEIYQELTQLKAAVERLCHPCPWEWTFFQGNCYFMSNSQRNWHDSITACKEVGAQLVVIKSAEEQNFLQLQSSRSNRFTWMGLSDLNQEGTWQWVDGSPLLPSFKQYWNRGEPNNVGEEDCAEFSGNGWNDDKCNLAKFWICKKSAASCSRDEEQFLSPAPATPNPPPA

T7: Human Clec4E (human, UniProt Q9ULY5 1-219)
T7 construct: also called hClec4E
T7 sequence: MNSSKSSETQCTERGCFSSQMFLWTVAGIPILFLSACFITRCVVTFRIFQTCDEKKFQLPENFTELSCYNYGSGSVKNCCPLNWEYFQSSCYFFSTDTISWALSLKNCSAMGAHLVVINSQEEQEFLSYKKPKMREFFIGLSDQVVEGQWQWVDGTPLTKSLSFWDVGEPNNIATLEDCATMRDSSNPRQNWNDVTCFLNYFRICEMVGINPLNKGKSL

T8: Human Clec10A (human, UniProt Q8IUN9 1-316)
T8 construct: also called hClec10A
T8 sequence: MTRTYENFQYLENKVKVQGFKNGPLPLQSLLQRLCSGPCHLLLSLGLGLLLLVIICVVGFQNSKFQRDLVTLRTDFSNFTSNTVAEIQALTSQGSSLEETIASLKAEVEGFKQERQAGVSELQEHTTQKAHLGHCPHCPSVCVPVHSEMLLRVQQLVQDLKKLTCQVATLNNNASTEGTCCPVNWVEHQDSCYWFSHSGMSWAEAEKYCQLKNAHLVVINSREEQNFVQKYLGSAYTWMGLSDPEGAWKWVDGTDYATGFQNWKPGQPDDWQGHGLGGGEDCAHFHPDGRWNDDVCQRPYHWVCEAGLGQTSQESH

T9: cynomolgus CD161 (cynomolgus)
T9 construct: UniProt A0A2K5WYI1; also called cynoCD161
T9 chain: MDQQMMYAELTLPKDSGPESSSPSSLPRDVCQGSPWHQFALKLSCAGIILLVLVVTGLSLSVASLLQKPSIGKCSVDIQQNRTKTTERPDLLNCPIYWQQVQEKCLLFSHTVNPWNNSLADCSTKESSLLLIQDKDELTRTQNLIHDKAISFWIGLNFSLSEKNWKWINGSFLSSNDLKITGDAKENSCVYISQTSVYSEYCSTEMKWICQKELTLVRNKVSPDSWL


Key:
[1] = target: T1, Human KLRF1; assay: flow, Jurkat
[2] = target: T2, Human KLRF2; assay: flow, Jurkat
[3] = target: T3, Human Clec12B; assay: flow, Jurkat
[4] = target: T4, Human KLRG1; assay: flow, Jurkat
[5] = target: T10, Human OLR1 (human, UniProt P78380 1-273); assay: flow, Jurkat
T10 construct: also called hOLR1

[6] = target: T5, Human Clec5A; assay: flow, Jurkat
[7] = target: T11, Human Clec9A (human, UniProt Q6UXN8 1-241); assay: flow, Jurkat
T11 construct: also called hClec9A

[8] = target: T6, Human CD209; assay: flow, Jurkat
[9] = target: T7, Human Clec4E; assay: flow, Jurkat
[10] = target: T8, Human Clec10A; assay: flow, Jurkat
[11] = target: T9, cynomolgus CD161; assay: flow, Jurkat, 100 nM Ab
[12] = target: T6, Human CD209; assay: flow, Jurkat, 100 nM Ab

T11 sequence (Q6UXN8 whole entry): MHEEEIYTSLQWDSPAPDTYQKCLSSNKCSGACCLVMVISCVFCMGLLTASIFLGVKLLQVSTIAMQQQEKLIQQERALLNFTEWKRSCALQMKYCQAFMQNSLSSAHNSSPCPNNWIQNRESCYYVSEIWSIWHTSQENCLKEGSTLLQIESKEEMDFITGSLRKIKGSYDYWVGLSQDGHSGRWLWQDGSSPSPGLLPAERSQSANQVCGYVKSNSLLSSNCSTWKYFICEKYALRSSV

Binder	binding result [1]	binding result [2]	binding result [3]	binding result [4]	binding result [5]	binding result [6]	binding result [7]	binding result [8]	binding result [9]	binding result [10]	MFI normalized to WT [11]	MFI normalized to WT [12]
KW1.2.1 (antibody, V domains shown) VH: EVQLVESGGGLVQPGGSLRLSCAASGSTFSSYAMSWVRQAPGKGLEWVSTISGSGGSTYYADSVKGRFTISRDNSRNTLYLQMNSLRAEDTAVYYCARGGLIPSGFDYWGQGTLVTVSS VL: DIQMTQSPSSPSASVGDRVTITCRASQSISSYLNWYQQKPGKAPKLLIYAASSLLSGVPSRFSGSGSGTDFTLTISSLQPEDFATYYCQQTYSTPLTFGQGTKVEIK	no binding (tested: 100 nM)	no binding (tested: 100 nM)	no binding (tested: 100 nM)	no binding (tested: 100 nM)	no binding (tested: 100 nM)	no binding (tested: 100 nM)	no binding (tested: 100 nM)	no binding (tested: 100 nM)	no binding (tested: 100 nM)	no binding (tested: 100 nM)	103	0.96
KM12.2.3 (antibody, human IgG1, V domains shown) VH: EVQLVESGGGLVQPGGSLRLSCAASGFTFSSYAMSWIRQAPGKGLEWVSAISGSGGSIYYADSVKGRFTISRDNSKNTLYLQMNSLRAEDTAVYYCARGYSDSYFYGPYYTFDYWGQGTLVTVSS VL: DIQMTQSPSSLSASVGDRVTITCRASQGISSYLNWYQQKPGKAPKLLIYAASSLQSGVSSRFSGSGSGTDFTLTISSLQPEDFATYYCQQSYNTPLTFGQGTKVEIK	no binding (tested: 100 nM)	no binding (tested: 100 nM)	no binding (tested: 100 nM)	no binding (tested: 100 nM)	no binding (tested: 100 nM)	no binding (tested: 100 nM)	no binding (tested: 100 nM)	no binding (tested: 100 nM)	no binding (tested: 100 nM)	no binding (tested: 100 nM)	11.9	1.48
KW7.3.7 (antibody, V domains shown) VH: EVQLVESGGGLVQPGGSLRLSCAASGFTFSSYAMSWVRQAPGKGLEWVSATSGSGGSTYYADSAKGRFTISRDNSKNTLYLQMNSLRAEDTAVYYCARGGYLPDAFDYWGRGTLVTVSS VL: DIQMTQSPSSLSASVGDRVTITCWASQSISSYLNWYQQEPGKAPKLLIYAASSLQSGVPSRFSGSGSGTDFTLTISSLQPEDFATYYCQQTYSTPLTFGQGTKVEIK	no binding (tested: 100 nM)	no binding (tested: 100 nM)	no binding (tested: 100 nM)	no binding (tested: 100 nM)	no binding (tested: 100 nM)	no binding (tested: 100 nM)	no binding (tested: 100 nM)	no binding (tested: 100 nM)	no binding (tested: 100 nM)	no binding (tested: 100 nM)	–	0.85
KW1.3.12 (antibody, human IgG1, V domains shown) VH: EVQLVESGGGLVQPGGSLRLSCAASGFTFSSYAMSWVRQAPGKGLEWVSTISGSGGSTYYADSVKGRFTISRDNSRNTLYLQMNSLRAEDTAVYYCARGGLIPSGFDYWGQGTLVTVSS VL: DIQMTQSPSSLSASVGDRVTITCRASQSISSYLNWYQQKPGKAPKLLIYAASSLLSGVPSRFSGSGSGTDFTLTISSLQPEDFATYYCQQTYSAPLTFGQGTKVEIK	no binding (tested: 100 nM)	no binding (tested: 100 nM)	no binding (tested: 100 nM)	no binding (tested: 100 nM)	no binding (tested: 100 nM)	no binding (tested: 100 nM)	no binding (tested: 100 nM)	no binding (tested: 100 nM)	no binding (tested: 100 nM)	no binding (tested: 100 nM)	117	0.91
KW7.2.2 (antibody, V domains shown) VH: not shown VL: DIQMTQSPSSLSASVGDRVTITCRASQSISSYLNWYQQKPGKAPRFLIYAASSLQSGVPSRFSGSGSGTDFTLTISSLQPEDFATYYCQQTYSTPLTFGQGTKVEIK	no binding (tested: 100 nM)	no binding (tested: 100 nM)	no binding (tested: 100 nM)	no binding (tested: 100 nM)	no binding (tested: 100 nM)	no binding (tested: 100 nM)	no binding (tested: 100 nM)	no binding (tested: 100 nM)	no binding (tested: 100 nM)	no binding (tested: 100 nM)	108	1
anti-CD161 KW17 (antibody, V domains shown, Human, lambda light chain; scFv-Fc or full IgG not clear; also called KW17-Fc) VH: not shown VL: QSVLTQPPSVSGAPGQRVTISCTGSSSNIGAGYDVHWYQQLPGTAPKLLIYGNSNRPSGVPDRFSGSKSGTSASLAITGLQAEDEADYYCQSYDSSHTVFGGGTQLTVL	no binding (tested: 100 nM)	no binding (tested: 100 nM)	no binding (tested: 100 nM)	no binding (tested: 100 nM)	no binding (tested: 100 nM)	no binding (tested: 100 nM)	no binding (tested: 100 nM)	no binding (tested: 100 nM)	no binding (tested: 100 nM)	no binding (tested: 100 nM)	–	–
